The values that follow come from US20050108782A1, “Transgenic RS1-/- animal and uses thereof” (priority 2003, published 2005).

One series concerns the target T1, hSGLT1 (Homo sapiens, UniProt P13866).
T1 construct: expressed in transfected cells; host or cells: Xenopus laevis oocytes (cRNA injection)
T1 sequence (P13866 1-664): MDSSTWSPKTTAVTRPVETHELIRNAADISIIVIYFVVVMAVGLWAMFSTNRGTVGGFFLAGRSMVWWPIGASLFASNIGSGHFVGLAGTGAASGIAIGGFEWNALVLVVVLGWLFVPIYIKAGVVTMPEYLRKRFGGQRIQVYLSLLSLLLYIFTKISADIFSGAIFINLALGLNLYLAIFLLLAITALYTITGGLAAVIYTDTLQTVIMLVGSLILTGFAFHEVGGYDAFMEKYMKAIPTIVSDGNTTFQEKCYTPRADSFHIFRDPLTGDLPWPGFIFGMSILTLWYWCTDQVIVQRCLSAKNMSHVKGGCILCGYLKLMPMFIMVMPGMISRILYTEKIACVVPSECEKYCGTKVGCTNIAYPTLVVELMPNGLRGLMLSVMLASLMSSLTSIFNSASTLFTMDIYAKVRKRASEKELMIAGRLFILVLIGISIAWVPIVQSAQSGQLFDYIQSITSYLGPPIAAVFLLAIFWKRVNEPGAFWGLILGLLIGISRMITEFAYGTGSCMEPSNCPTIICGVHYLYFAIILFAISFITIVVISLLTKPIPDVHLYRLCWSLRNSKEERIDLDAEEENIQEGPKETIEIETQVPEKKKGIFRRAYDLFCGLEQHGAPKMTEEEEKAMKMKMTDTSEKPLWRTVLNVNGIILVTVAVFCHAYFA
As to the kind of experiment: [14C]AMG uptake expressed by hSGLT1 in Xenopus laevis oocytes. It counts as cell-based. The method, then:
(§1) Stage V-VI oocytes were removed from Xenopus laevis clawed toads, selected and injected with cRNAs or water as described earlier (Veyhl et al., (1994) J. Biol. Chem. 268, 25041-25053). Per oocyte […] of water (control) or water containing plasma membrane transporter cRNAs alone or together with different amounts of hRS1-cRNA were injected. For translation the injected oocytes were incubated for 2-3 days (16° C.) in ORi buffer (5 mM HEPES-Tris, pH 7.4, 100 mM NaCl, 3 mM KCl, 2 mM CaCl and 1 mM MgCl2) containing 50 mg/l gentamycin (Veyhl et al., (1994) J. Biol. Chem. 268, 25041-25053).
(§2) [^14C]-AMG uptake of expressed plasma membrane transporters in oocytes was measured as described earlier Veyhl et al., (1994) J. Biol. Chem. 268, 25041-25053. Each uptake value represents the mean±SEM (n=8-10 oocytes). All experiments were performed with at least 3 batches of Xenopus oocytes.
Dynamin, a member of structurally related but functionally heterogeneous family of GTPases, that is required for clathrin-mediated and other types of endocytosis. After GTP binding dynamin assembles to a ring around the neck of coated pits and induces fission and release of vesicles upon hydrolysis of GTP (Eccleston et al., (2002) Eur. Biophys. J. 31, 275-282.). […] Oocytes were injected with 2.5 ng of hSGLT1-cRNA or with 2.5 ng pf hSGLT1-cRNA plus 10 ng of hRS1-cRNA. In some experiments either 10 ng of wild-type (DyWt) dynamin cRNA or 10 ng of dominant gegative dynamin mutant (DyMu) cRNA were coinjected. After three days of incubation for expression, phlorizin inhibitable uptake of 50 μM of [^14C]AMG was measured over a time period of 15 min as described earlier (Lambotte et al., (1996) DNA Cell Biol. 15, 769-777).
According to the methods described in Example 11 Xenopus oocytes were injected with 2.5 ng of SGLT1-cRNA or with 2.5 ng of SGLT1-cRNA plus 10 ng of hRS1 and incubated three days for expression (FIG. 11). Then the oocytes were injected with 50 nl Ori buffer (controls) or with 50 nl Ori buffer containing 20 μM of the protein kinase C activator sn-1,2-dioctanoyl glycerol (DOG). After 30 min incubation the phlorizin inhibitable uptake of 50 μM [^14C]AMG was measured as in FIG. 10.

The test system of a further series is hSGLT1 and hRS1. The series can be described thus: [14C]AMG uptake in Xenopus laevis oocytes coexpressing hSGLT1 and hRS1, with protein kinase C activation. It counts as cell-based, human. The note with it: coexpression of hSGLT1 and hRS1; 50 nl Ori buffer containing 20 μM DOG injected, 30 min incubation; 50 μM [14C]AMG. How it is done: as §1, §2
According to the methods described in Example 11 Xenopus oocytes were injected with 2.5 ng of SGLT1-cRNA or with 2.5 ng of SGLT1-cRNA plus 10 ng of hRS1 and incubated three days for expression (FIG. 11). Then the oocytes were injected with 50 nl Ori buffer (controls) or with 50 nl Ori buffer containing 20 μM of the protein kinase C activator sn-1,2-dioctanoyl glycerol (DOG). After 30 min incubation the phlorizin inhibitable uptake of 50 μM [^14C]AMG was measured as in FIG. 10. […]

`CCCCCCCC(=O)OC[C@H](CO)OC(=O)CCCCCCC` [DOG, sn-1,2-dioctanoyl glycerol, reference compound]: the “uptake of AMG expressed by hSGLT1, change by DOG” value at hSGLT1 (hSGLT1 alone, 50 nl Ori buffer containing 20 μM DOG injected, 30 min incubation, 50 μM [14C]AMG) was “increased”. Besides, in the series with hSGLT1 and hRS1, the “expressed uptake of AMG, change by DOG” value is “decreased”.

B1: hRS1: human RS1 protein, expressed in Xenopus oocytes from injected hRS1-cRNA; regulator of SGLT1 (protein, UniProt Q92681 1-617, looked up)
Regulatory solute carrier …: MSSLPTSDGFNHPARSSGQSPDVGNPMSLARSVSASVCPIKPSDSDRIEPKAVKALKASAEFQLNSEKKEHLSLQDLSDHASSADHAPTDQSPAMPMQNSSEEITVAGNLEKSAERSTQGLKFHLHTRQEASLSVTSTRMHEPQMFLGEKDWHPENQNLSQVSDPQQHEEPGNEQYEVAQQKASHDQEYLCNIGDLELPEERQQNQHKIVDLEATMKGNGLPQNVDPPSAKKSIPSSECSGCSNSETFMEIDTAQQSLVTLLNSTGRQNANVKNIGALDLTLDNPLMEVETSKCNPSSEILNDSISTQDLQPPETNVEIPGTNKEYGHYSSPSLCGSCQPSVESAEESCPSITAALKELHELLVVSSKPASENTSEEVICQSETIAEGQTSIKDLSERWTQNEHLTQNEQCPQVSFHQAISVSVETEKLTGTSSDTGREAVENVNFRSLGDGLSTDKEGVPKSRESINKNRSVTVTSAKTSNQLHCTLGVEISPKLLAGEEDALNQTSEQTKSLSSNFILVKDLGQGIQNSVTDRPETRENVCPDASRPLLEYEPPTSHPSSSPAILPPLIFPATDIDRILRAGFTLQEALGALHRVGGNADLALLVLLAKNIVVPT
With B1, in the series with hSGLT1 (2.5 ng SGLT1-cRNA plus 10 ng hRS1, three days, FIG. 11), the “expression of AMG uptake by hSGLT1 after coexpression of hRS1” value is on record as “reduced”. In addition, the “phlorizin inhibitable uptake of 50 μM [14C]AMG” value in the series with hSGLT1 (2.5 ng hSGLT1-cRNA plus 10 ng hRS1-cRNA, three days expression, hSGLT1 alone 56±7) is 10±1.5 pmol/oocyte×15 min; with hSGLT1 (hSGLT1-cRNA plus hRS1-cRNA, 10 ng dominant negative dynamin mutant (DyMu) cRNA coinjected) it was 37±3.5 pmol/oocyte×15 min; in the series with hSGLT1 (hSGLT1-cRNA plus hRS1-cRNA, 10 ng wild-type dynamin (DyWt) cRNA coinjected) it was 2.5 pmol/oocyte×15 min. Further, in the series with hSGLT1 (coexpression with hRS1, unpublished data not shown), the “Km value of AMG uptake expressed by hSGLT1” value is reported as “does not change”. Moreover, the “Vmax of AMG transport by hSGLT1 after coexpression with hRS1” value with hSGLT1 (tracer uptake studies and electrical measurements, unpublished data not shown) was “decreased”.
